Test results from PMC10397247.

Legend:
Test in all cases: two-hybrid library CCNG1;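 also: natural log of median RNA to DNA barcode read ratio; higher means stronger binding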
4H1446-bA = biological target: T1, 4H1446-bA
T1 chain: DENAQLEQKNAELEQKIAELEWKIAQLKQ

4H1828-bA = biological target: T2, 4H1828-bA
T2 chain: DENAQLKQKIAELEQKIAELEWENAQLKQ

4H2442-bA = biological target: T3, 4H2442-bA
T3 chain: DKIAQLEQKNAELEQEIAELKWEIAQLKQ

4H4001-bA = biological target: T4, 4H4001-bA
T4 chain: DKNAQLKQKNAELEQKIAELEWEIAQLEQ

4H3782-bA = biological target: T5, 4H3782-bA
T5 chain: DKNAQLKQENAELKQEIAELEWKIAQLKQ

4H717-bA = biological target: T6, 4H717-bA
T6 chain: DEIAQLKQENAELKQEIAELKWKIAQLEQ

4H607-bA = biological target: T7, 4H607-bA
T7 chain: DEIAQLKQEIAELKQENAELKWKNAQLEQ

4H3855-bA = biological target: T8, 4H3855-bA
T8 chain: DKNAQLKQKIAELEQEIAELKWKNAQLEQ

4H3606-bA = biological target: T9, 4H3606-bA
T9 chain: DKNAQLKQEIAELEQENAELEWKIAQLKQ

4H3185-bA = biological target: T10, 4H3185-bA
T10 chain: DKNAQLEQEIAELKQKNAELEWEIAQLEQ

4H687-bA = biological target: T11, 4H687-bA
T11 chain: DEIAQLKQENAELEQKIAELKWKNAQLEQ

4H3843-bA = biological target: T12, 4H3843-bA
T12 chain: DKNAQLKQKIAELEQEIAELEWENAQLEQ

4H338-bA = biological target: T13, 4H338-bA
T13 chain: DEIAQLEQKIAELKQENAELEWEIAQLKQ

4H908-bA = biological target: T14, 4H908-bA
T14 chain: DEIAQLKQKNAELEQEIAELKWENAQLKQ

4H454-bA = biological target: T15, 4H454-bA
T15 chain: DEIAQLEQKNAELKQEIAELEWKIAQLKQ

4H2610-bA = biological target: T16, 4H2610-bA
T16 chain: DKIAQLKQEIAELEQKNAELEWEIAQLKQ

4H3427-bA = biological target: T17, 4H3427-bA
T17 chain: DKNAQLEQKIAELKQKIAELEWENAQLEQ

4H2667-bA = biological target: T18, 4H2667-bA
T18 chain: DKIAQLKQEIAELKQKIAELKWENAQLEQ

4H3354-bA = biological target: T19, 4H3354-bA
T19 chain: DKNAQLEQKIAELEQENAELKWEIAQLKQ

4H2697-bA = biological target: T20, 4H2697-bA
T20 chain: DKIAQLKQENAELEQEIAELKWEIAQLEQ

4H2618-bA = biological target: T21, 4H2618-bA
T21 chain: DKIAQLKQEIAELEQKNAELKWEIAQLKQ

4H370-bA = biological target: T22, 4H370-bA
T22 chain: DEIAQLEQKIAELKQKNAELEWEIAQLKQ

4H797-bA = biological target: T23, 4H797-bA
T23 chain: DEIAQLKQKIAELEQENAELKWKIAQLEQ

4H462-bA = biological target: T24, 4H462-bA
T24 chain: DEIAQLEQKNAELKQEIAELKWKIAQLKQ

4H967-bA = biological target: T25, 4H967-bA
T25 chain: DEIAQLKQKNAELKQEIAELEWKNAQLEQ

4H2729-bA = biological target: T26, 4H2729-bA
T26 chain: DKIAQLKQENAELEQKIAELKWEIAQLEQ

4H754-bA = biological target: T27, 4H754-bA
T27 chain: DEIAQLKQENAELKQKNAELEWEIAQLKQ

4H1845-bA = biological target: T28, 4H1845-bA
T28 chain: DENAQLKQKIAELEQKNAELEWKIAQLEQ

4H3189-bA = biological target: T29, 4H3189-bA
T29 chain: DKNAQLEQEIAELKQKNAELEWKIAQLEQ

4H568-bA = biological target: T30, 4H568-bA
T30 chain: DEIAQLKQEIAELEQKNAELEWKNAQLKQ

4H2576-bA = biological target: T31, 4H2576-bA
T31 chain: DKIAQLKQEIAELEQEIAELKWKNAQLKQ

4H918-bA = biological target: T32, 4H918-bA
T32 chain: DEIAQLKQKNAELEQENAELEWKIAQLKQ

4H953-bA = biological target: T33, 4H953-bA
T33 chain: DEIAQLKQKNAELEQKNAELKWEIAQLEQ

4H72-bA = biological target: T34, 4H72-bA
T34 chain: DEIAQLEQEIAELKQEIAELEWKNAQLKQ

4H3112-bA = biological target: T35, 4H3112-bA
T35 chain: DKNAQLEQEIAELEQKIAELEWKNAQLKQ

4H331-bA = biological target: T36, 4H331-bA
T36 chain: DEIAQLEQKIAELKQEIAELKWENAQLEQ

4H883-bA = biological target: T37, 4H883-bA
T37 chain: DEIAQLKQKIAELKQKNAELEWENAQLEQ

P9A-bH = biological target: T38, P9A-bH
T38 chain: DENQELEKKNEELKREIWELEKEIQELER

4H492-bN = biological target: T39, 4H492-bN
T39 chain: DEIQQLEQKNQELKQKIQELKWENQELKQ

4H348-bA = biological target: T40, 4H348-bA
T40 chain: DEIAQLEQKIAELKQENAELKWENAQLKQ

4H2931-bH = biological target: T41, 4H2931-bH
T41 chain: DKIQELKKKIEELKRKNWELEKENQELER

4H2585-bH = biological target: T42, 4H2585-bH
T42 chain: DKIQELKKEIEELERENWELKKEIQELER

4H2233-bH = biological target: T43, 4H2233-bH
T43 chain: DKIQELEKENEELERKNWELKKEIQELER

4H730-bH = biological target: T44, 4H730-bH
T44 chain: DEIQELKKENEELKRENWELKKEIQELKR

4H2859-bH = biological target: T45, 4H2859-bH
T45 chain: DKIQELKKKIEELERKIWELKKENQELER

4H3041-bH = biological target: T46, 4H3041-bH
T46 chain: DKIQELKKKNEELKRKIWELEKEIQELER

4H3297-bH = biological target: T47, 4H3297-bH
T47 chain: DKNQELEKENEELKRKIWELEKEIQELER

4H932-bH = biological target: T48, 4H932-bH
T48 chain: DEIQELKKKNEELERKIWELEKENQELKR

4H796-bH = biological target: T49, 4H796-bH
T49 chain: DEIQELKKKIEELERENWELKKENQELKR

4H56-bH = biological target: T50, 4H56-bH
T50 chain: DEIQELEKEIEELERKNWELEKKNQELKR

4H949-bH = biological target: T51, 4H949-bH
T51 chain: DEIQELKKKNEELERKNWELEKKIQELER

4H3381-bH = biological target: T52, 4H3381-bH
T52 chain: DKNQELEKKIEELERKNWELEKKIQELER

4H2518-bH = biological target: T53, 4H2518-bH
T53 chain: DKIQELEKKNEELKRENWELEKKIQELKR

4H2253-bH = biological target: T54, 4H2253-bH
T54 chain: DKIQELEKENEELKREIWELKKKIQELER

4H3364-bH = biological target: T55, 4H3364-bH
T55 chain: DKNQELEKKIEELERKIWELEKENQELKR

4H264-bH = biological target: T56, 4H264-bH
T56 chain: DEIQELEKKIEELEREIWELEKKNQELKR

4H349-bH = biological target: T57, 4H349-bH
T57 chain: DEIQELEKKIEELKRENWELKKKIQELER

4H2162-bH = biological target: T58, 4H2162-bH
T58 chain: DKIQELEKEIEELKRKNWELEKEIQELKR

4H2444-bH = biological target: T59, 4H2444-bH
T59 chain: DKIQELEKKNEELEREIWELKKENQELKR

4H235-bH = biological target: T60, 4H235-bH
T60 chain: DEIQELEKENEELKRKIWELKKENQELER

4H264-bA = biological target: T61, 4H264-bA
T61 chain: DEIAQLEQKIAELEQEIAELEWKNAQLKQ

4H2760-bH = biological target: T62, 4H2760-bH
T62 chain: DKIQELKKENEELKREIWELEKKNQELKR

B1: 4H1446-bA (peptide)
chain: DENAQLEQKNAELEQKIAELEWKIAQLKQ
interaction score (4H1446-bA): 0.569 | interaction score (4H1828-bA): -0.523 | interaction score (4H2442-bA): -1.04 | interaction score (4H4001-bA): 1.86 | interaction score (4H3782-bA): 0.586 | interaction score (4H717-bA): -0.295 | interaction score (4H607-bA): -0.535 | interaction score (4H3855-bA): 0.209 | interaction score (4H3606-bA): 0.144 | interaction score (4H3185-bA): -0.0587 | interaction score (4H687-bA): -0.607 | interaction score (4H3843-bA): 2.01 | interaction score (4H338-bA): -0.241 | interaction score (4H908-bA): -0.405 | interaction score (4H454-bA): -0.131 | interaction score (4H2610-bA): -0.647 | interaction score (4H3427-bA): 0.256 | interaction score (4H2667-bA): 0.0853 | interaction score (4H3354-bA): -0.413 | interaction score (4H2697-bA): -0.0949 | interaction score (4H2618-bA): 0.00602 | interaction score (4H370-bA): 0.183 | interaction score (4H797-bA): -1.42 | interaction score (4H462-bA): -0.194 | interaction score (4H967-bA): -0.635 | interaction score (4H2729-bA): 1.08 | interaction score (4H754-bA): -0.817 | interaction score (4H1845-bA): -0.389 | interaction score (4H3189-bA): -0.621 | interaction score (4H568-bA): -0.418 | interaction score (4H2576-bA): 1.12 | interaction score (4H918-bA): -0.0235 | interaction score (4H953-bA): -0.416 | interaction score (4H72-bA): 1.16 | interaction score (4H3112-bA): 0.505 | interaction score (4H331-bA): 1.79 | interaction score (4H883-bA): 0.0122

B2: 4H1828-bA (peptide)
chain: DENAQLKQKIAELEQKIAELEWENAQLKQ
interaction score (4H1828-bA): 0.663 | interaction score (4H2442-bA): 0.499 | interaction score (4H4001-bA): -0.562 | interaction score (4H3782-bA): 0.85 | interaction score (4H717-bA): -1.09 | interaction score (4H607-bA): -0.523 | interaction score (4H3855-bA): -0.259 | interaction score (4H3185-bA): -0.351 | interaction score (4H687-bA): -0.0353 | interaction score (P9A-bH): 0.475 | interaction score (4H338-bA): -1.89 | interaction score (4H908-bA): -0.276 | interaction score (4H454-bA): -1.06 | interaction score (4H3427-bA): 0.974 | interaction score (4H2667-bA): 0.0606 | interaction score (4H3354-bA): 0.0682 | interaction score (4H2618-bA): 0.132 | interaction score (4H797-bA): -0.153 | interaction score (4H967-bA): -0.0426 | interaction score (4H2729-bA): -0.137 | interaction score (4H754-bA): -1.2 | interaction score (4H1845-bA): -0.511 | interaction score (4H568-bA): 0.727 | interaction score (4H2576-bA): 0.0647 | interaction score (4H918-bA): -0.412 | interaction score (4H953-bA): -0.126 | interaction score (4H492-bN): -2.71 | interaction score (4H72-bA): -0.902 | interaction score (4H348-bA): -0.144 | interaction score (4H3112-bA): 1.15 | interaction score (4H331-bA): -0.739 | interaction score (4H883-bA): -0.928

B3: 4H2162-bH (peptide)
chain: DKIQELEKEIEELKRKNWELEKEIQELKR
interaction score (4H2931-bH): 0.798 | interaction score (4H2585-bH): 0.942 | interaction score (4H2233-bH): 0.284 | interaction score (4H730-bH): -1.99 | interaction score (4H2859-bH): 0.783 | interaction score (4H3041-bH): 0.641 | interaction score (4H3297-bH): 0.0958 | interaction score (4H932-bH): -0.531 | interaction score (4H796-bH): -0.188 | interaction score (4H56-bH): 0.668 | interaction score (4H949-bH): -1.64 | interaction score (4H3381-bH): 0.0641 | interaction score (4H2518-bH): 1 | interaction score (4H2253-bH): -0.234 | interaction score (4H3364-bH): 0.498 | interaction score (4H264-bH): 0.0138 | interaction score (4H349-bH): 0.54 | interaction score (4H2162-bH): 0.161 | interaction score (4H2444-bH): 0.28 | interaction score (4H235-bH): 0.377 | interaction score (4H264-bA): 0.1 | interaction score (4H2760-bH): 0.202
